From article PMC4729865 (Nature Communications, 2016)

T1: GST-Mad1 (176–718 amino acids) (human, UniProt Q9Y6D9 176-718)
T1 construct: source: E. coli BL21, purified (Glutathione Sepharose 4B, eluted by glutathione); not shown: GST, N-terminal, kept
T1 sequence (looked up): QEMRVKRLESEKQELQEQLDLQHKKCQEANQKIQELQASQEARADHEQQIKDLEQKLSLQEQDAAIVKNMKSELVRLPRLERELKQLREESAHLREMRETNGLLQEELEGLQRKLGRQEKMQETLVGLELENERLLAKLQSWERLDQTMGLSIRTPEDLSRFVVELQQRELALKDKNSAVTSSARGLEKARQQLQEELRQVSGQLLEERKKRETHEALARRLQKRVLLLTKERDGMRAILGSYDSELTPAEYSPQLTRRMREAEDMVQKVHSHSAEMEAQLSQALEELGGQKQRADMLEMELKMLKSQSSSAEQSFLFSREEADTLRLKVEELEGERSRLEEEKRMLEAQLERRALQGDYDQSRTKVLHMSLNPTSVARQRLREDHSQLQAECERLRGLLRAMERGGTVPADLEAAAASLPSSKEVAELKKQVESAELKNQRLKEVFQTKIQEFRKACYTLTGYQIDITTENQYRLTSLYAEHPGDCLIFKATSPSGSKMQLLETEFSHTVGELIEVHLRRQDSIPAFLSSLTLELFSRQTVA

T2: Flag-Mad1 (human, UniProt Q9Y6D9 1-718)
T2 construct: Mad1, human; cDNA amplified from a HeLa cell cDNA library; also called Flag-Mad1 (FL); source: HEK293T, purified (anti-Flag beads, 600 mM NaCl wash, eluted by 3 x Flag peptides); not shown: Flag, N-terminal, kept
T2 sequence (looked up): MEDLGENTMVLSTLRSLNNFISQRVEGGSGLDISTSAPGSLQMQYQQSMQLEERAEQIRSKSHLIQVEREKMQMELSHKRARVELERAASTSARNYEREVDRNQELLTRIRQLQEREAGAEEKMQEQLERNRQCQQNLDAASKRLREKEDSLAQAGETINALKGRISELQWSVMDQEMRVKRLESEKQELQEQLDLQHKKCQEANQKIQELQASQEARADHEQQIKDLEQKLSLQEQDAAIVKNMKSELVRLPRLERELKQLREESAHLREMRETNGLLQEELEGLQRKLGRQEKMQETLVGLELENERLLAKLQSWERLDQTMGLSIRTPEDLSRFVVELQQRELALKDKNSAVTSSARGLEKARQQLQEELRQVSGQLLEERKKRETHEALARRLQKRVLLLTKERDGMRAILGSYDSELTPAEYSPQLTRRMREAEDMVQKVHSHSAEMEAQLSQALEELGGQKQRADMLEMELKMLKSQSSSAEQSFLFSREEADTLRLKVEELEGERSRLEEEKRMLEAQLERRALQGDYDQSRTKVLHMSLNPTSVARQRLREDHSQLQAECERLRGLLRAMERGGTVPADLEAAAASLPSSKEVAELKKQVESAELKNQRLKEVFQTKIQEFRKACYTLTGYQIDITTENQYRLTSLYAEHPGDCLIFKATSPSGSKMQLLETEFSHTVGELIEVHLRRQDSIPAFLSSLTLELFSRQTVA

T3: MBP-Cep57 (1–242 amino acids) (human, UniProt Q86XR8 1-242)
T3 construct: also called MBP-Cep57N; source: E. coli BL21, purified (Amylose Magnetic beads); not shown: MBP, N-terminal, kept
T3 sequence (looked up): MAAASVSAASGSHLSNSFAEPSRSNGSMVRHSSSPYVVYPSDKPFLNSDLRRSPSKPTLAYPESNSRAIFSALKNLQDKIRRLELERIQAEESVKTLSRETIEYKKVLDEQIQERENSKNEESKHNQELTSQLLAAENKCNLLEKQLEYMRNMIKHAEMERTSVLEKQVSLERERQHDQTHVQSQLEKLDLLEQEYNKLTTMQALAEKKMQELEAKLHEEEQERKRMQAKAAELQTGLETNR

T4: Mad1-GFP (human, UniProt Q9Y6D9 1-718)
T4 construct: Mad1, human; cDNA amplified from a HeLa cell cDNA library; not shown: GFP, C-terminal, kept
T4 sequence (looked up): T2 sequence (looked up)

B1: MBP-Cep57 (151–500 amino acids) (domain or fragment, human, UniProt Q86XR8 151-500, looked up)
chain: RNMIKHAEMERTSVLEKQVSLERERQHDQTHVQSQLEKLDLLEQEYNKLTTMQALAEKKMQELEAKLHEEEQERKRMQAKAAELQTGLETNRLIFEDKATPCVPNARRIKKKKSKPPEKKSSRNYFGAQPHYRLCLGDMPFVAGKSTSPSHAVVANVQLVLHLMKQHSKALCNDRVINSIPLAKQVSSRGGKSKKLSVTPPSSNGINEELSEVLQTLQDEFGQMSFDHQQLAKLIQESPTVELKDKLECELEALVGRMEAKANQITKVRKYQAQLEKQKLEKQKKELKATKKTLDEERNSSSRSGITGTTNKKDFMKLRPGEKRRKNLQLLKDMQSIQNSLQSSSLCWDY
notes: Cep57, human, residues 151-500; source: E. coli BL21, purified (Amylose Magnetic beads); not shown: MBP, N-terminal, kept
B2: GST-Cep57 (195–500 amino acids) (domain or fragment, human, UniProt Q86XR8 195-500, looked up)
chain: EYNKLTTMQALAEKKMQELEAKLHEEEQERKRMQAKAAELQTGLETNRLIFEDKATPCVPNARRIKKKKSKPPEKKSSRNYFGAQPHYRLCLGDMPFVAGKSTSPSHAVVANVQLVLHLMKQHSKALCNDRVINSIPLAKQVSSRGGKSKKLSVTPPSSNGINEELSEVLQTLQDEFGQMSFDHQQLAKLIQESPTVELKDKLECELEALVGRMEAKANQITKVRKYQAQLEKQKLEKQKKELKATKKTLDEERNSSSRSGITGTTNKKDFMKLRPGEKRRKNLQLLKDMQSIQNSLQSSSLCWDY
notes: also called C terminus of Cep57; C-terminal Cep57; source: E. coli, purified (Glutathione Sepharose 4B); not shown: GST, N-terminal, kept
B3: GST-Mis12 (natural protein, human, UniProt Q9H081 1-205, looked up)
chain: MSVDPMTYEAQFFGFTPQTCMLRIYIAFQDYLFEVMQAVEQVILKKLDGIPDCDISPVQIRKCTEKFLCFMKGHFDNLFSKMEQLFLQLILRIPSNILLPEDKCKETPYSEEDFQHLQKEIEQLQEKYKTELCTKQALLAELEEQKIVQAKLKQTLTFFDELHNVGRDHGTSDFRESLVSLVQNSRKLQNIRDNVEKESKRLKIS
notes: Mis12, human; cDNA amplified from a HeLa cell cDNA library; also called Mis12 from bacteria; WT GST-Mis12; source: E. coli BL21, purified (Glutathione Sepharose 4B, eluted by glutathione); not shown: GST, N-terminal, kept
B4: Flag-Cep57 (natural protein, human, UniProt Q86XR8 1-500, looked up)
chain: MAAASVSAASGSHLSNSFAEPSRSNGSMVRHSSSPYVVYPSDKPFLNSDLRRSPSKPTLAYPESNSRAIFSALKNLQDKIRRLELERIQAEESVKTLSRETIEYKKVLDEQIQERENSKNEESKHNQELTSQLLAAENKCNLLEKQLEYMRNMIKHAEMERTSVLEKQVSLERERQHDQTHVQSQLEKLDLLEQEYNKLTTMQALAEKKMQELEAKLHEEEQERKRMQAKAAELQTGLETNRLIFEDKATPCVPNARRIKKKKSKPPEKKSSRNYFGAQPHYRLCLGDMPFVAGKSTSPSHAVVANVQLVLHLMKQHSKALCNDRVINSIPLAKQVSSRGGKSKKLSVTPPSSNGINEELSEVLQTLQDEFGQMSFDHQQLAKLIQESPTVELKDKLECELEALVGRMEAKANQITKVRKYQAQLEKQKLEKQKKELKATKKTLDEERNSSSRSGITGTTNKKDFMKLRPGEKRRKNLQLLKDMQSIQNSLQSSSLCWDY
notes: Cep57 (translokin), human; cDNA amplified from a HeLa cell cDNA library; also called purified Cep57 from HEK293T cells; source: HEK293T, purified (anti-Flag beads, 600 mM NaCl wash, eluted by 3 x Flag peptides); not shown: Flag, N-terminal, kept

How the values were obtained:
Settings in all cases: both partners purified
[1] = biological target: T1, GST-Mad1 (176–718 amino acids); experiment: pull-down; about 0.2 μg MBP-Cep57 fragment coupled to Amylose Magnetic beads incubated with about 0.2 μg purified, eluted GST-tagged protein; washed five times with lysis buffer; western blotting with anti-GST
[2] = biological target: T2, Flag-Mad1; experiment: co-IP; purified proteins incubated together, immunoprecipitated with anti-Flag or anti-GFP antibody, western blotting
[3] = biological target: B4; experiment: as above
[4] = biological target: T3, MBP-Cep57 (1–242 amino acids); experiment: pull-down; about 0.2 μg MBP-Cep57 fragment coupled to Amylose Magnetic beads incubated with about 0.2 μg purified, eluted GST-tagged protein; washed five times with lysis buffer; western blotting with anti-GST
[5] = biological target: T4, Mad1-GFP; experiment: co-IP; purified proteins incubated together, immunoprecipitated with anti-Flag or anti-GFP antibody, western blotting

B1
binding result [1]: binds

B2
binding result [2]: binds

B3
binding result [3]: binds
binding result [4]: binds

B4
binding result [5]: binds
